Assay results as given in the supplement of paper PMC10065799, “High-throughput profiling of sequence recognition by tyrosine kinases and SH2 domains using bacterial peptide display” (eLife, 2023).

What was measured:
Grb2 SH2 = Grb2 SH2 (UniProt P62993); assay: SH2 binding enrichment of the phosphorylated peptide, bacterial display (enrichment ratio); higher = better substrate or ligand; peptides without Tyr show the background
SHP2-C SH2 = assay: as above
c-Src SH2 = assay: as above
AncSZ = assay: phosphorylation enrichment, bacterial display (enrichment ratio); higher = better substrate or ligand; peptides without Tyr show the background
FGFR1 = FGFR1 (UniProt P11362); assay: as above
Fes = Fes (UniProt P07332); assay: as above
Fes, sequence (P07332 whole entry, looked up): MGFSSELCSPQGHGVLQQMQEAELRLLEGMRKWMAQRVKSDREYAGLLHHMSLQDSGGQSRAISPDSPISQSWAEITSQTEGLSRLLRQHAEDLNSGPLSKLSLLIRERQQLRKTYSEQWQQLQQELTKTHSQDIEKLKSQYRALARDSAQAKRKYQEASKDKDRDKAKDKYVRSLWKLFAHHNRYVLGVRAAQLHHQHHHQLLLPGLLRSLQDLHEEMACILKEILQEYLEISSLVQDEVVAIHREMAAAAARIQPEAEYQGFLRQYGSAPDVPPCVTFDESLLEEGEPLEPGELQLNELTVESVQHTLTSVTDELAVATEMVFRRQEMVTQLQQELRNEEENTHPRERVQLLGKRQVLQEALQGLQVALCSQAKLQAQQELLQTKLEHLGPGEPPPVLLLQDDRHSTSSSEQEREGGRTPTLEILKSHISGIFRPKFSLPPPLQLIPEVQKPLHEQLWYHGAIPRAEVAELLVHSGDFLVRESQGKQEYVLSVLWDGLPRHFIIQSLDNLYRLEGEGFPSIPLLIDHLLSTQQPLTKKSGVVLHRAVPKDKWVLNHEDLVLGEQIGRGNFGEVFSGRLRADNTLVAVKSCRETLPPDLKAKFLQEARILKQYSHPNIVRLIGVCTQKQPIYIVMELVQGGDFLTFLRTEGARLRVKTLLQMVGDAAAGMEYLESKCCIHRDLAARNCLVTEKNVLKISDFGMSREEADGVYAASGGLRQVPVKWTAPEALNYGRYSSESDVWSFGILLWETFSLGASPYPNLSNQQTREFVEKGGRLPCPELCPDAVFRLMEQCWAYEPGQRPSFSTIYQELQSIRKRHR

EPHB2 = EPHB2 (UniProt P29323); assay: as above
Fer (mouse) = assay: as above
EPHB1 = EPHB1 (UniProt P54762); assay: as above
EPHB1, sequence (P54762 whole entry, looked up): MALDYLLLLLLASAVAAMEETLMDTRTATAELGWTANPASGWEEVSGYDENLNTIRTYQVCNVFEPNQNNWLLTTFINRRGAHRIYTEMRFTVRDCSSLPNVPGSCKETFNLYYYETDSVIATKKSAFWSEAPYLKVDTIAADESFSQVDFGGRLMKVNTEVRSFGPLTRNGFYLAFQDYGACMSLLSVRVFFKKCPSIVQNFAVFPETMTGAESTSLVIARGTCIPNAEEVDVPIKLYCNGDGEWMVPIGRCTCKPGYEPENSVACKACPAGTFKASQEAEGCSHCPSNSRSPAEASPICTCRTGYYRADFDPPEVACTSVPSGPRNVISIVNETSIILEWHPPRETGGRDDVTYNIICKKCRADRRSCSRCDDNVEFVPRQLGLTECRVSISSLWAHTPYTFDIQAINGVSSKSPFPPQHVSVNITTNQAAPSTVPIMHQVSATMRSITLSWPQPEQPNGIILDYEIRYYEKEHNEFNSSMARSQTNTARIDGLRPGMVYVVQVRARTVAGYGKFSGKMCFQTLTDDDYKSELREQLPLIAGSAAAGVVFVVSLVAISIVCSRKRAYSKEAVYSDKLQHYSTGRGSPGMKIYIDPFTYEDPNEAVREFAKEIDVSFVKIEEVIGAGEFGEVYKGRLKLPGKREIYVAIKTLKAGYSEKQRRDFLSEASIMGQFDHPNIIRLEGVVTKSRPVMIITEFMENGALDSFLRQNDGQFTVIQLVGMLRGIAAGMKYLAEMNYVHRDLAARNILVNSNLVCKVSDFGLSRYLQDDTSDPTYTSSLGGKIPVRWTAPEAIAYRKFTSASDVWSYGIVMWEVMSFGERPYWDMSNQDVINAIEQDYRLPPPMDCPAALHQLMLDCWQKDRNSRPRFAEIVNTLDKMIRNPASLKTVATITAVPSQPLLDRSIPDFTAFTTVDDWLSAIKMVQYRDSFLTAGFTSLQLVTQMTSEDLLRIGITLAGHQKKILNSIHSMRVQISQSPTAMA

FGFR3 = FGFR3 (UniProt P22607); assay: as above
FGFR3, sequence (P22607 whole entry, looked up): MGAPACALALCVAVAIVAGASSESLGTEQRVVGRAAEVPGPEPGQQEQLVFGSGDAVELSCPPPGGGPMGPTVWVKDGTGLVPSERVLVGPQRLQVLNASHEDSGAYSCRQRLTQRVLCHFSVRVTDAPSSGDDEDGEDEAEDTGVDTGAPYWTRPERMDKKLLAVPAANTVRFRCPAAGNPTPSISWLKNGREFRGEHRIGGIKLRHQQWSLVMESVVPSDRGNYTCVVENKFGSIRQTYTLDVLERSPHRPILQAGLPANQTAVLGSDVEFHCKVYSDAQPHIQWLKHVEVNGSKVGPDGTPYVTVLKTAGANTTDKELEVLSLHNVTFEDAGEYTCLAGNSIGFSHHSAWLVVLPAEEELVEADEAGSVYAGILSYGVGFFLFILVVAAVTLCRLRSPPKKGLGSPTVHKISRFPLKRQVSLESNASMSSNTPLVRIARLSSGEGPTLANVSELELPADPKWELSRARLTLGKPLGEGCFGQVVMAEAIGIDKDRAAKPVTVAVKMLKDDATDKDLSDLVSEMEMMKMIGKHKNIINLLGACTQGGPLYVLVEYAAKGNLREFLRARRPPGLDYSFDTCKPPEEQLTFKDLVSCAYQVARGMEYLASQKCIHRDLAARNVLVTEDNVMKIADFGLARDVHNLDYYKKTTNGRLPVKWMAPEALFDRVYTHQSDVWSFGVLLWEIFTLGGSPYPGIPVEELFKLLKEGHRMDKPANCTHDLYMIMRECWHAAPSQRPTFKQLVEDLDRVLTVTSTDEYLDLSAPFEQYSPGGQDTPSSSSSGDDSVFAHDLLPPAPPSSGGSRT

MERTK = MERTK (UniProt Q12866); assay: as above
MERTK, sequence (Q12866 whole entry, looked up): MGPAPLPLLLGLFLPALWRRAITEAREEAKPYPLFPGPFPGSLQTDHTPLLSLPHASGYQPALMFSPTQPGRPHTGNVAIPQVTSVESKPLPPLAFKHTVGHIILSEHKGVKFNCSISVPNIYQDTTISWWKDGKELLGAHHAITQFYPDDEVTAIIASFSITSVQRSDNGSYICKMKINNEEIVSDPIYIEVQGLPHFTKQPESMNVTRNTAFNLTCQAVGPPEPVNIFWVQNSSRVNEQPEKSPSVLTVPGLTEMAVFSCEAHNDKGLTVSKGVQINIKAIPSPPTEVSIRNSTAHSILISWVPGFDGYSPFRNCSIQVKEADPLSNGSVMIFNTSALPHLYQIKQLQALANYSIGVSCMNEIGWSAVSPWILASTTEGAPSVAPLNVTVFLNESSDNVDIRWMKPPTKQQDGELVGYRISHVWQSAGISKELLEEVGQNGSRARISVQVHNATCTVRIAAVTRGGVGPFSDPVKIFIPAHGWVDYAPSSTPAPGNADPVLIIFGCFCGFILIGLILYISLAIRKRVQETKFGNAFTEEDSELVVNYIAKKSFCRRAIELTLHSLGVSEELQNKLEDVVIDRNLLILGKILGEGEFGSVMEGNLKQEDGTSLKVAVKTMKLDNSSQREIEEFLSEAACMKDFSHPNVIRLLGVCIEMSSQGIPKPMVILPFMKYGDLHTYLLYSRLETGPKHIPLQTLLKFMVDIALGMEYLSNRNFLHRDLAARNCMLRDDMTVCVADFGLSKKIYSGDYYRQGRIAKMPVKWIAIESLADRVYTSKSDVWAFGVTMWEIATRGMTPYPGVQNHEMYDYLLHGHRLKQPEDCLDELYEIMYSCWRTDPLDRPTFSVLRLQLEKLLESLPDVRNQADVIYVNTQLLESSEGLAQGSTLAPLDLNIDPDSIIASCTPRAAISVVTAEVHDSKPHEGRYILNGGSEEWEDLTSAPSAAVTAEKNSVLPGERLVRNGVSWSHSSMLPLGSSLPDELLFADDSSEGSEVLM

c-Src = assay: as above
Fyn = Fyn (UniProt P06241); assay: as above
Jak2 = Jak2 (UniProt O60674); assay: as above
Jak2, sequence (O60674 whole entry, looked up): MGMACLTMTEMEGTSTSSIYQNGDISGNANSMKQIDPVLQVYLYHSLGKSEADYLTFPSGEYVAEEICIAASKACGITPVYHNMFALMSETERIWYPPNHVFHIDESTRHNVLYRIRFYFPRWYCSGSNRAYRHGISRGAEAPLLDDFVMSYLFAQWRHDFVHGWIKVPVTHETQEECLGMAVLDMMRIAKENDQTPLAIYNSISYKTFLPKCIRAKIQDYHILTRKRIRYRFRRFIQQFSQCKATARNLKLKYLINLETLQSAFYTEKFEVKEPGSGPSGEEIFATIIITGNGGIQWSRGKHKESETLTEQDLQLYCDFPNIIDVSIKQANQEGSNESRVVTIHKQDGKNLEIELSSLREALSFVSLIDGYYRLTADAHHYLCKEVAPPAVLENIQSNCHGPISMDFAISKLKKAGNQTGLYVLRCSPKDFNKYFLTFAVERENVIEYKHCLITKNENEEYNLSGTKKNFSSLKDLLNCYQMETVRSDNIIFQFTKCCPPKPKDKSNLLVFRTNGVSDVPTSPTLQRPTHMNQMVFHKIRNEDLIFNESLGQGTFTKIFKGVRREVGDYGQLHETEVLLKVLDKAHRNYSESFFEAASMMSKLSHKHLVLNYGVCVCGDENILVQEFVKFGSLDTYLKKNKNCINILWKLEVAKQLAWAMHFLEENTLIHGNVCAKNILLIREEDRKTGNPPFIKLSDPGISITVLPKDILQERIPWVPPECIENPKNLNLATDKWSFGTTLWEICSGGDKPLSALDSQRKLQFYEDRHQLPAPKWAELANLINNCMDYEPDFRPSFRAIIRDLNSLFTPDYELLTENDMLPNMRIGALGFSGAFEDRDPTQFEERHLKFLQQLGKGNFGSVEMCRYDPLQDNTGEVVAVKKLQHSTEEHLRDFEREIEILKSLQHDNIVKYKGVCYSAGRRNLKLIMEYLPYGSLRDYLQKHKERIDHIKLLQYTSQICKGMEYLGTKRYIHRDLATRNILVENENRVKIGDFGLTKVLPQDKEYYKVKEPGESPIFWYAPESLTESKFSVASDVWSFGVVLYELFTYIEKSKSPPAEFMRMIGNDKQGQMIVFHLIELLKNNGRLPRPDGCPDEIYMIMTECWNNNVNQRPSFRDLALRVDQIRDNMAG

c-Abl (mouse) = assay: as above
Hck = Hck (UniProt P08631); assay: as above
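Wherever SH2 binding enrichment of the phosphorylated peptide, bacterial display is given: peptide library displayed on the E. coli surface as eCPX fusions, selected cells deep-sequenced, score is each peptide's frequency after selection divided by its frequency in the input.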
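Wherever phosphorylation enrichment, bacterial display is given: 11-residue human phosphosite peptides and single-mutation variants displayed on the E. coli surface, counted by deep sequencing, each peptide's frequency after selection divided by its frequency in the unselected input library; frequency after pTyr selection over input frequency; kinase dosed for 20-30% of maximal phosphorylation in three min.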

Grb2 SH2, sequence (P62993 whole entry, looked up): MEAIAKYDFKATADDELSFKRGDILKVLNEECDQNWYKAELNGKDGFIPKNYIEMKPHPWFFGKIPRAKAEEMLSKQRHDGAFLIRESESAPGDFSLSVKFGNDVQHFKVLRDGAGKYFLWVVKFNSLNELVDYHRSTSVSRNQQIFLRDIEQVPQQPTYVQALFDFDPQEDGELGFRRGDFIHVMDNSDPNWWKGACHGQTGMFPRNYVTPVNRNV

| Sequence | SH2 binding enrichment (Grb2 SH2) | SH2 binding enrichment (SHP2-C SH2) | SH2 binding enrichment (c-Src SH2) | phosphorylation enrichment (AncSZ) | phosphorylation enrichment (FGFR1) | phosphorylation enrichment (Fes) | phosphorylation enrichment (EPHB2) | phosphorylation enrichment (Fer (mouse)) | phosphorylation enrichment (EPHB1) | phosphorylation enrichment (FGFR3) | phosphorylation enrichment (MERTK) | phosphorylation enrichment (c-Src) | phosphorylation enrichment (Fyn) | phosphorylation enrichment (Jak2) | phosphorylation enrichment (c-Abl (mouse)) | phosphorylation enrichment (Hck) |
| --- | --- | --- | --- | --- | --- | --- | --- | --- | --- | --- | --- | --- | --- | --- | --- | --- |
| IVFTSYVLTIL [TAS2R16_Y239_F240V] | 1.04 | 0.641 | 0.806 | 1.41 | 0.71 | 1.73 | 0.794 | 0.731 | 0.884 | 1.17 | 0.526 | 0.55 | 0.667 | 1.55 | 1.05 | 0.623 |
| IVVVPYEPPEV [TP53_Y220_S215I] | 0.835 | 0.763 | 0.811 | 1.01 | 0.511 | 1.08 | 0.544 | 0.554 | 0.636 | 0.665 | 0.448 | 0.386 | 0.43 | 0.882 | 0.733 | 0.48 |
| IVWDSYTTNKV [GNB3_Y85] | 0.966 | 0.887 | 0.585 | 1 | 0.501 | 1.2 | 0.559 | 0.519 | 0.675 | 0.635 | 0.307 | 0.359 | 0.546 | 0.895 | 0.718 | 0.528 |
| IWGKKYPTCNS [PTPRZ1_Y53_N48I] | 1.2 | 0.89 | 0.846 | 0.697 | 0.432 | 0.776 | 0.491 | 0.518 | 0.441 | 0.607 | 0.407 | 0.397 | 0.369 | 0.667 | 0.628 | 0.406 |
| IYLADYRIMEG [ALOX12B_Y318] | 0.982 | 1.1 | 0.719 | 1.14 | 2.63 | 1.1 | 1.07 | 0.48 | 1.26 | 2.46 | 3.75 | 1.16 | 0.738 | 1.03 | 0.978 | 0.812 |
| KAIMTYVFSFF [ACTN4_Y260_S262F_YF] | 1.26 | 1.19 | 0.888 | 0.989 | 0.443 | 0.945 | 0.461 | 0.454 | 0.553 | 0.725 | 0.431 | 0.425 | 0.464 | 0.698 | 0.526 | 0.502 |
| KDHPDYKYQPR [SOX10_Y171] | 1.04 | 0.77 | 0.619 | 0.668 | 0.492 | 0.595 | 0.381 | 0.435 | 0.362 | 0.481 | 0.387 | 0.412 | 0.458 | 0.509 | 0.687 | 0.463 |
| KELANYFKLHH [AK7_Y390_YF] | 0.945 | 0.949 | 0.516 | 0.644 | 1.15 | 0.877 | 0.537 | 0.442 | 0.727 | 0.83 | 0.545 | 0.481 | 0.567 | 1.68 | 0.439 | 0.486 |
| KELAPYDENRF [RPS19_Y48_W52R] | 0.896 | 1.39 | 0.605 | 1.05 | 0.48 | 1.36 | 0.553 | 0.579 | 0.594 | 0.79 | 0.5 | 0.577 | 0.485 | 1.05 | 0.983 | 0.512 |
| KIITDYFVDMK [MPP4_Y566_V562I_YF] | 0.83 | 0.571 | 0.526 | 1.05 | 0.732 | 1.15 | 0.566 | 0.456 | 0.575 | 0.783 | 0.37 | 0.529 | 0.513 | 1.14 | 0.644 | 0.479 |
| KILGRYFETGS [PAX2_Y72_YF] | 0.9 | 0.845 | 0.438 | 0.575 | 0.459 | 0.656 | 0.467 | 0.464 | 0.414 | 0.496 | 0.375 | 0.413 | 0.408 | 0.759 | 0.563 | 0.397 |
| KKHFSYAWPFY [BRDT_Y291] | 1.73 | 1.46 | 1.52 | 1 | 0.495 | 0.965 | 0.428 | 0.385 | 0.622 | 0.564 | 1.22 | 0.375 | 0.456 | 0.647 | 0.493 | 0.425 |
| KKLAEYGPQGK [CLCA1_Y147_R152K] | 0.769 | 0.609 | 0.491 | 0.361 | 0.369 | 0.498 | 0.324 | 0.326 | 0.334 | 0.295 | 0.273 | 0.348 | 0.401 | 0.366 | 0.427 | 0.401 |
| KKRRSYGNSSD [SELENOK_Y52] | 0.601 | 0.525 | 0.376 | 0.554 | 0.383 | 0.582 | 0.394 | 0.417 | 0.472 | 0.395 | 0.51 | 0.525 | 0.448 | 0.475 | 0.479 | 0.511 |
| KLFFHYDPKLC [INSR_Y457_N458D] | 0.702 | 0.709 | 0.542 | 1.01 | 0.423 | 1.25 | 0.516 | 0.47 | 0.643 | 0.67 | 0.382 | 0.361 | 0.342 | 0.961 | 0.948 | 0.327 |
| KLFIEYPTGSG [IRF2BPL_Y423] | 0.82 | 1 | 0.505 | 0.636 | 0.412 | 0.775 | 0.565 | 0.301 | 0.478 | 0.486 | 0.374 | 0.402 | 0.444 | 0.653 | 0.521 | 0.431 |
| KLIETYFSKNY [PLP1_Y50] | 0.716 | 0.461 | 0.37 | 0.701 | 0.334 | 0.732 | 0.329 | 0.285 | 0.371 | 0.453 | 0.374 | 0.41 | 0.355 | 0.719 | 0.574 | 0.52 |

| Sequence | SH2 binding enrichment (Grb2 SH2) | SH2 binding enrichment (SHP2-C SH2) | SH2 binding enrichment (c-Src SH2) | phosphorylation enrichment (AncSZ) | phosphorylation enrichment (FGFR1) | phosphorylation enrichment (Fes) | phosphorylation enrichment (EPHB2) | phosphorylation enrichment (Fer (mouse)) | phosphorylation enrichment (EPHB1) | phosphorylation enrichment (FGFR3) | phosphorylation enrichment (MERTK) | phosphorylation enrichment (c-Src) | phosphorylation enrichment (Fyn) | phosphorylation enrichment (Jak2) | phosphorylation enrichment (c-Abl (mouse)) | phosphorylation enrichment (Hck) |
| --- | --- | --- | --- | --- | --- | --- | --- | --- | --- | --- | --- | --- | --- | --- | --- | --- |
| KLNNEYLELNY [MME_Y497] | 0.931 | 0.783 | 0.553 | 1.08 | 4.67 | 0.892 | 1.01 | 0.417 | 0.925 | 3.27 | 0.449 | 0.679 | 0.633 | 0.861 | 0.635 | 0.627 |
| KLPYPYDDPFS [GPX2_Y127] | 0.97 | 0.544 | 3.58 | 1.09 | 0.507 | 1.06 | 0.532 | 0.434 | 0.458 | 0.745 | 0.515 | 0.546 | 0.534 | 0.954 | 0.705 | 0.589 |
| KLQKFYRQNPD [EHHADH_Y683_YF] | 0.719 | 0.647 | 0.418 | 0.499 | 0.343 | 0.498 | 0.348 | 0.387 | 0.545 | 0.416 | 0.452 | 0.409 | 0.418 | 0.393 | 0.581 | 0.443 |
| KMATAYIRRMS [BCO1_Y264] | 0.593 | 0.497 | 0.389 | 0.68 | 0.461 | 0.572 | 0.495 | 0.362 | 0.359 | 0.431 | 0.468 | 0.514 | 0.425 | 0.58 | 0.544 | 0.425 |
| KMKGEYYRYLA [YWHAG_Y130_D129E] | 1.65 | 1.16 | 1.25 | 0.981 | 4.78 | 0.961 | 0.717 | 0.409 | 0.639 | 3.14 | 0.957 | 1.07 | 0.607 | 1.68 | 1.34 | 1.09 |
| KNGSNYVVKGN [KIT_Y823_D820G] | 0.837 | 0.782 | 0.527 | 0.526 | 0.435 | 0.576 | 0.38 | 0.375 | 0.346 | 0.368 | 0.466 | 0.482 | 0.449 | 0.484 | 0.411 | 0.45 |
| KPEKTYGLRNE [CEP43_Y267_K271N] | 0.594 | 0.758 | 0.534 | 0.494 | 0.394 | 0.569 | 0.362 | 0.321 | 0.39 | 0.371 | 0.397 | 0.439 | 0.37 | 0.512 | 0.551 | 0.406 |
| KPLMPCMRFSR [SMARCE1_Y73_Y73C_YF] | 0.858 | 0.912 | 0.477 | 0.92 | 0.393 | 0.916 | 0.448 | 0.443 | 0.39 | 0.502 | 0.506 | 0.469 | 0.466 | 0.707 | 0.88 | 0.439 |
| KPLMPSMRYSR [SMARCE1_Y73_Y73S] | 0.717 | 0.499 | 0.441 | 0.823 | 0.405 | 0.756 | 0.445 | 0.377 | 0.328 | 0.467 | 0.467 | 0.498 | 0.383 | 0.555 | 0.49 | 0.462 |
| KPMDTYYDSTR [DYNC2H1_Y2230] | 0.903 | 0.66 | 0.898 | 0.874 | 0.998 | 0.774 | 0.675 | 0.447 | 0.632 | 0.76 | 0.498 | 0.7 | 0.543 | 0.545 | 0.678 | 1.13 |
| KQLYAYKMLMA [TMC2_Y209] | 1.32 | 1.4 | 0.842 | 0.629 | 0.515 | 0.72 | 0.445 | 0.384 | 0.62 | 0.496 | 0.368 | 0.383 | 0.39 | 0.669 | 0.57 | 0.458 |
| KRFRIYHLAIS [BRCA2_Y3009_T3013I_YF] | 1.81 | 1.43 | 1.56 | 0.899 | 0.644 | 0.942 | 0.524 | 0.48 | 0.612 | 0.625 | 0.484 | 0.448 | 0.55 | 0.86 | 1.38 | 0.494 |
| KRGVSYILKLA [SERPINB1_Y84_A82V] | 1.28 | 0.797 | 0.763 | 1.4 | 0.534 | 1.6 | 0.557 | 0.524 | 0.504 | 0.676 | 0.446 | 0.412 | 0.426 | 1.34 | 0.768 | 0.558 |
| KSEFAYEIFDK [MYOM2_Y1024_L1022F] | 0.613 | 0.63 | 1.08 | 1.34 | 0.564 | 1.04 | 0.573 | 0.543 | 0.527 | 0.664 | 0.967 | 2.1 | 0.797 | 1.01 | 0.746 | 0.561 |
| KSVITYSPTTG [ITGB3BP_Y32] | 0.91 | 0.849 | 0.507 | 0.49 | 0.37 | 0.592 | 0.49 | 0.401 | 0.325 | 0.464 | 0.403 | 0.462 | 0.38 | 0.586 | 0.447 | 0.353 |
| KVIDMYLMGCF [GABRB2_Y308_A304V] | 0.795 | 0.917 | 0.363 | 1.28 | 0.619 | 1.38 | 0.55 | 0.638 | 0.636 | 0.842 | 0.429 | 0.593 | 0.535 | 1.24 | 0.964 | 0.608 |
